Test: label from the status in PepcDB records

Sequence	protein production
SEKLAASTEPQGPRPVLGRESVQVPDDQDFRSFRSECEAEVGWNLTYSRAGVSVWVQAVEMDRTLHKIKCRMECCDVPAETLYDVLHDIEYRKKWDSNVIETFDIARLTVNADVGYYSWRCPKPLKNRDVITLRSWLPMGADYIIMNYSVKHPKYPPRKDLVRAVSIQTGYLIQSTGPKSCVITYLAQVDPKGSLPKWVVNKSSQFLAPKAMKKMYKACLKYPEWKQKHLPHFKPWLHPEQSPLPSLALSELSVQHADSLENIDESAVAESREERMGGAGGEGSDDDTSLT	not failed
SELKPTAPPIFTGRPFVVAWDVPTQDCGPRLKVPLDLNAFDVQASPNEGFVNQNITIFYRDRLGLYPRFDSAGRSVHGGVPQNVSLWAHRKMLQKRVEHYIRTQESAGLAVIDWEDWRPVWVRNWQDKDVYRRLSRQLVASRHPDWPPDRIVKQAQYEFEFAAQQFMLETLRYVKAVRPRHLWGFYLFPDCYNHDYVQNWESYTGRCPDVEVARNDQLAWLWAESTALFPSVYLDETLASSRHGRNFVSFRVQEALRVARTHHANHALPVYVFTRPTYSRRLTGLSEMDLISTIGESAALGAAGVILWGDAGYTTSTETCQYLKDYLTRLLVPYVVNVSWATQYCSRAQCHGHGRCVRRNPSASTFLHLSTNSFRLVPGHAPGEPQLRPVGELSWADIDHLQTHFRCQCYLGWSGEQCQWDHRQAAGGASEAWAGSHLTSLLALAALAFTWTL	failed
SERYAAALEEVADGARQQERHYQLLSALQSLVKELPSSFQQRLSYTTLSDLALALLDGTVFEIVQGLLEIQHLTEKSLYNQRLRLQNEHRVLRQALRQKHQEAQQACRPHNLPVVQAAQQRELEAVEHRIREEQRAMDQKIILELDRKVADQQSTLEKAGVAGFYVTTNPQELMLQMNLLELIRKLQQRGCRAGNAALGLGGPWQSPAAQCDQKGSPVPP	not failed
SEYKFAKFAATYFQGTTTHSYTRRPLKQPLLYHDDEGDQLAALAVWITILRFMGDLPEPKYHTAMSDGSEKIPVMTKIYETLGKKTYKRELQALQGEGEAQLPEGQKKSSVR	failed
SFRVVLDPGHGGIDGGARGVTGILEKDVTLAFARALRDELQKGSHTIVALTRDSDIFLRLSERVKKAQEFDADLFISIHADTIDVHSLRGATVYTISDEASDAIAKSLAESENKVDLLDGLPKEESLELTDILLDLTRRETHAFSINFANNVVSNLSKSHINLINNPHRYADFQVLKAPDVPSVLIEIGYLSNKEDEKLLNNPQWRKQMAASIAYSIRQFAEYRQKIMQPL	not failed
SGLAQPQIAAVVAAPKKPEPAKAPKAPKSKSEKENKPVVAARKANAPVAKNASPVKGGKGPAGGDVGRPKNPTANGANNQGRFNNNQRYGNKESNGEFGNELPQRQFNNRDNRGPPRVRTGEKFG	failed
SIAILVIMHGESTASSMVNVANTLLDCNHAVAINMGLEDRVQDILVQAVEIANKIDKGKGILILTDMGSILTFAKVIRDATGKEVKAIDMVSTPIVIEATRKALTPEMTLEKLYFNIIESIKKHYGDMEVTYAEK	failed
SIAILVIMHGESTASSMVNVANTLLDCNHAVAINMGLEDRVQDILVQAVEIANKIDKGKGILILTDMGSILTFAKVIRDATGKEVKAIDMVSTPIVIEATRKALTPEMTLEKLYFNIIESIKKHYGDMEVTYAEKDNGGRY	not failed
SIDSKLQTLGEQLMQGKRGAIVMIEPETGEVLCLVSSPSYDPSLLAGKDRGKNHLEMEHDRNKPLYARAIQATYPPGSTFKPAQGAIFLQEGVIRPTDAFSCYHGFPPLNNRPACHSHGSPLSLVPALATSCNAFFCWGLRAMLDNRRFYPSVQEAFEHWKNRIVGLGFGYRLGLDLPGERRGYIPNSKVYDKAYKGRWNSSTIISISIGQGEILATPLQIANLGVIIANRGRYRRPHVVKAIQGIPLDTAYTNWQNSGISPANMEYIVEGMARAVTGGTCHAANFAPGEIEVCGKTGTAENPHGKDHSAFLGFAPRNNPKVVVSVYVENGGFGAVYGVPIGRVMMEYYLREGKLSPEGEAVATKMSNTAIHYSNVF	failed
SISTHESQKLREYYRLLNLDEGCSVDDVRESFHKLARQYHPDSGSSDADSATFIKIEEAYRNVLSHAIKRMHAGQDKAEDAAEDEEEGKFKYNTPQHRHYLSFEGVGFGTPSQREKQYRQFRADRATEQVMEYQRQKLQREFFANSITVKDVRQSKQQKITQAIERLVEDLIQESMAKGDFDNLSGKGKPLKKFSGCSYIDPMTHNLNRILIDNGYQPEWILMQKEIKDTIEQLREALLMSRKKLGNPLSPTEQKQWAQVCEQFQEKIRKLNKRINDFNLIVPILTRQKVHFDAQKEIIRVQEMYGAFVEANEVTEENQTDVSQGEESKTPRVKAGFLNWLNLWKSIKI	failed
SKIYDNKNQLIADLGSERRVNAQANDIPTDLVKAIVSIEDHRFFDHRGIDTIRILGAFLRNLQSNSLQGGSTLTQQLIKLTYFSTSTSDQTISRKAQEAWLAIQLEQKATKQEILTYYINKVYMSNGNYGMQTAAQNYYGKDLNNLSLPQLALLAGMPQAPNQYDPYSHP	failed
SKKPYIVTIACTKGGSAKSTNAANIGAFCADHGLRTLLIDTDTQPTLSSYYSLAKTAPGGIYEFLLQRDVEPSHIVSQTSIKNLDLIQSNDPSNNVSHMLRNAPDGSIRFSHLIKSINNYDVIVIDTRGTRDITVDMSVLAADILFCPILPQILSAKEFIRGTIGMYQDLQTFESFGFKLPPLKAIANGVDNTNDVKFVMQKLHTLFANTFDES	failed
SKLNERSVAHYALSDSPADHMGFLRTWGGPGTPPTPSGTGRRCWFVLKGNLLFSFESREGRAPLSLVVLEGCTVELAEAPVPEEFAFAICFDAPGVRPHLLAAEGPAAQEAWVKVLSRASFGYMRLVVRELESQLQDARQSLALQRRSSWKSVASRCKPQAPNHRAAGLENGHCLSKDSSPVGLVEEAGSRSAGWGLAEWELQGPASLLLGKGQSPVSPETSCFSTLHDWYGQEIVELRQCWQKRAQGSHSKCEEQDRP	not failed
SKYQLGMLHFSTQYDLLHNHLTVRVIEARDLPPPISHDGSRQDMAHSNPYVKICLLPDQKNSKQTGVKRKTQKPVFEERYTFEIPFLEAQRRTLLLTVVDFDKFSRHCVIGKVSVPLCEVDLVKGGHWWKALIP	not failed
SLANIREIAKRAGISIATVSRHLNNTGYVSEDAREKIQKVVDELNYTPNALARAMFTKNSKTIGLMVPNISNPFFNQMASVIEEYAKNKGYTLFLCNTDDDKEKEKTYLEVLQSHRVAGIIASRSQCEDEYANIDIPVVAFENHILDNIITISSDNYNGGRMAFDHLYEKGCRKILHIKGPEVFEATELRYKGFLDGARAKDLEIDFIEFQHDFQVKMLEEDINSMKDIVNYDGIFVFNDIAAATVMRALKKRGVSIPQEVQIIGFDNSFIGELLYPSLTTINQPIEALAYTIIELLIKIINGEGVLIEDYIMEVKLIERETTISLKDEG	not failed
SLDTEKDCIKAVAAKDGITVIKVKSSNKLLSWHFMRKLFEIFEFYQEPVDMVATSEVGVSLTIDNDKNLPDIVRALSDIGDVTVDKDMVIICIVGDMEWDNVGFEARIINALKGVPVRMISYGGSNYNVSVLVKAEDKKKALIALSNKLFNSRATKA	not failed
SLKKIVESTTFPRTKQSITEDLKALGLKKGMTVLVHSSLSSIGWVNGGAVAVIQALIDVVTEEGTIVMPSQSVELSDPKEWGNPPVPEEWWDIIRESMPAYNSNYTPTTRGMGQIVELFRSYPEVKRSNHPNYSFVAWGKHKNKILNQHPLEFGLGEQSPLGKLYIRESYVLLLGADFDSSTCFHLAEYRIPYQKIINRGAPIIVEGKRVWKEYKELEFREELFQEVGQAFEAEHNMKVGKVGSANCRLFSLTEAVDFAEKWFINNDSKNIKK	not failed
